Tests used:
human GPRC5A = molecular target: T1, human GPRC5A (human, UniProt Q8NFJ5 1-357); experiment: cell ELISA on stably transfected CHO cells
T1 construct: whole, on cells; also called hu GPCR5A
Procedure: (§1) Stable transfected CHO clones expressing either human GPRC5D or cynomolgus GPRC5D or murin GPRC5D or human GPRC5A were used to analyze the binding of potential lead candidate antibodies as IgGs. In detail, 10⁴ cells (viability≥98%) were seeded into 384 well-microtiter plates (BD Poly D-Lysin, #356662, volume: 25 μl/well) using fresh culture medium. After overnight incubation at 37° C., 25 μl/well dilutions of antibodies were added (15×1:3 dilutions in 1×PBS, assay conc. starts at 30 μg/ml) to the cells for 2 hours at 4° C. After one washing step using 90 μl/well PBST (10×PBS, Roche, #11666789001+0.1% Tween 20), cells were subsequently fixed by the addition of 50 μl/well 0.05% glutharaldehyde (Sigma Cat. No: G5882 in 1×PBS) for 10 min at room temperature (RT). After three additional washing steps using 90 μl/well PBST, secondary antibodies were added for detection: for human antibodies goat anti-human Ig κ chain antibody HRP conjugate (Millipore #AP502P) diluted 1:2000 in blocking buffer (1×PBS (Roche #11666789001)+2% BSA (Bovine Serum Albumin Fraction V, fatty acid free, Roche, #10735086001)+0.05% Tween 20) was used (25 μl/well). […] After incubation for 1 h at RT and three additional washing steps using 90 μl/well PBST, 25 μl/well TMB substrate was added (Roche order no. 11835033001) for 10 min and color development to final ODs was determined by measurement at 370 nm/492 nm.
(§2) Cynomolgus crossreactivity was also detected for all other antibodies but at lower levels compared to 10B10 and 07A04 (FIG. 9). No significant binding to CHO cells expressing murine GPRC5D and no binding to CHO cells expressing the human version of GPRC5A was detected (FIG. 9).

murine GPRC5D = molecular target: T2, murine GPRC5D (murine, UniProt Q9JIL6 1-344); experiment: cell ELISA on stably transfected CHO cells
T2 construct: whole, on cells; also called murin GPRC5D
T2 sequence (looked up): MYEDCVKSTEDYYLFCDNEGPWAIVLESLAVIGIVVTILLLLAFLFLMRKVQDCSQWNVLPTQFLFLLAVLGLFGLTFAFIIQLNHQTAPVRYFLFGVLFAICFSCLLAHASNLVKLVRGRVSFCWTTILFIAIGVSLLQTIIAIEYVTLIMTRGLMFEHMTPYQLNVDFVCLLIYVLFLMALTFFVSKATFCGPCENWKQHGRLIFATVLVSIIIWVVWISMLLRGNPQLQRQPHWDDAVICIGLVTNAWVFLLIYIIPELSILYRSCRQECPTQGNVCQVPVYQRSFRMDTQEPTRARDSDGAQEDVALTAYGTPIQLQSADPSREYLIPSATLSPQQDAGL
Procedure: as §1, §2

[1] = molecular target: T3, B-cell maturation antigen (BCMA) (UniProt Q02223 1-184, limits assumed); experiment: cell-based or functional assay
T3 sequence (looked up): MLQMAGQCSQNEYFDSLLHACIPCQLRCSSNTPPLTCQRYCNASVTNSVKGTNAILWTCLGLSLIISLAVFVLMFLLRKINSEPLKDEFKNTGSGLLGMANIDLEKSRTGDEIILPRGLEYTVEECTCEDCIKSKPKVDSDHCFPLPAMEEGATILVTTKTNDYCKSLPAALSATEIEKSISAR

T1 sequence (Q8NFJ5 whole entry): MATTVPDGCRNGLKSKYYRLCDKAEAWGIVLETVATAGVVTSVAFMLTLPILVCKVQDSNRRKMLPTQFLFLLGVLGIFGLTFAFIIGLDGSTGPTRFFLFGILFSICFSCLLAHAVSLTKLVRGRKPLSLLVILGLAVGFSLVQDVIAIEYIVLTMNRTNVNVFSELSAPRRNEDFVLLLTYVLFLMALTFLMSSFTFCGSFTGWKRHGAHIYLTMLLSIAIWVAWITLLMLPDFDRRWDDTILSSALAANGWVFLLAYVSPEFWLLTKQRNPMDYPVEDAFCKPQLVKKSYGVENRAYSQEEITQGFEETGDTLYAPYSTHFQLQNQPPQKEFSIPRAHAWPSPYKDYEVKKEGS

B1: 5F11 IgG (antibody, V domains shown)
VH: EVQLVESGGGLVQPGRSLKLSCAASGFSFSNYGMAWVRQAATKGLEWVASISTGGGNTYYRDSVKGRFIVSRDNAKNTQYLQMDSLRSEDTATYYCTRHDRGGLYWGQGVMVTVSS
VL: DIVMTQAPLSVSVTPGESASISCRSSKSLLHSNGITYVYWYFQKPGKSPQVLIYRMSNLASGVPDRFSGSGSETDFTLKISRVEAEDVGIYHCGQLLENPYTFGAGTELELK
B1: no binding (tested: 30 µg/ml top concentration) (human GPRC5A).

B2: 07A04 IgG (antibody, V domains shown)
VH: QVTLKESGPGILQPSHTLSLTCSFSGFSLSTYGMGVNWIRQPSGKGLEWLASIWWNGNTYNNPSLKSRLTVSKDTSNNQAFLKVTSVDTADTATYYCVHTRGIIRGRGLFFDYWGQGVMVTVSS
VL: DVQMTQSPYNLAASPGESVSINCKASKSISKYLAWYQQKPGKANKLLIYDGSTLQSGIPSRFSGSGSGTDFTLTIRSLEPEDFGLYYCQQHNEYPLTFGSGTKLEIKR
notes: also called rat IgG 07A04
B2: no binding (tested: 30 µg/ml top concentration) (murine GPRC5D); no binding (tested: 30 µg/ml top concentration) (human GPRC5A).

B3: 10B10 IgG (antibody, V domains shown)
VH: EVQLVESGGGLVQPGRSMKLSCAASGFTFTNFYMAWVRQAPTKALEWVASINTGGGYTYYRDSVKGRFTVSRDNTRSTLYLQMDSLRSEETATYYCARHLTYYGRYYYFDYWGQGVMVTVSS
VL: DIQLTQSPHSLSASLGETVSIECLASEGISNYLAWFHQKPGKSPQLLIYYASSLQDGVPSRFSGSGSGTQYSLKISNMQPEDEGVYYCQQGYKYPLTFGSGTKLEIK
notes: also called rat IgG 10B10
B3: no binding (tested: 30 µg/ml top concentration) (murine GPRC5D); no binding (tested: 30 µg/ml top concentration) (human GPRC5A).

B4: BCMA-TCB (bispecific antibody, human IgG1, kappa, L234A L235A)
heavy 1: EVQLLESGGGLVQPGGSLRLSCAASGFTFSSYAMNWVRQAPGKGLEWVSAITASGGSTYYADSVKGRFTISRDNSKNTLYLQMNSLRAEDTAVYYCARYWPMSLWGQGTLVTVSSASTKGPSVFPLAPSSKSTSGGTAALGCLVEDYFPEPVTVSWNSGALTSGVHTFPAVLQSSGLYSLSSVVTVPSSSLGTQTYICNVNHKPSNTKVDEKVEPKSCDKTHTCPPCPAPEAAGGPSVFLFPPKPKDTLMISRTPEVTCVVVDVSHEDPEVKFNWYVDGVEVHNAKTKPREEQYNSTYRVVSVLTVLHQDWLNGKEYKCKVSNKALGAPIEKTISKAKGQPREPQVCTLPPSRDELTKNQVSLSCAVKGFYPSDIAVEWESNGQPENNYKTTPPVLDSDGSFFLVSKLTVDKSRWQQGNVFSCSVMHEALHNHYTQKSLSLSPGK
light 1: EIVLTQSPGTLSLSPGERATLSCRASQSVSAYYLAWYQQKPGQAPRLLMYDASIRATGIPDRFSGSGSGTDFTLTISRLEPEDFAVYYCQQYERWPLTFGQGTKVEIKRTVAAPSVFIFPPSDRKLKSGTASVVCLLNNFYPREAKVQWKVDNALQSGNSQESVTEQDSKDSTYSLSSTLTLSKADYEKHKVYACEVTHQGLSSPVTKSFNRGEC
heavy 2: not shown
light 2: EVQLLESGGGLVQPGGSLRLSCAASGFTFSTYAMNWVRQAPGKGLEWVSRIRSKYNNYATYYADSVKGRFTISRDDSKNTLYLQMNSLRAEDTAVYYCVRHGNFGNSYVSWFAYWGQGTLVTVSSASVAAPSVFIFPPSDEQLKSGTASVVCLLNNFYPREAKVQWKVDNALQSGNSQESVTEQDSKDSTYSLSSTLTLSKADYEKHKVYACEVTHQGLSSPVTKSFNRGEC
B4 was tested, and the “EC50 of in vitro killing, AMO-1 cells” value [1] was 0.518 nM, the “EC50 of in vitro killing, EJM cells” value [1] was 0.132 nM and the “EC50 of in vitro killing, L363 cells” value [1] was 0.127 nM. The “EC50 of in vitro killing, MOLP-2 cells” value [1] was 0.032 nM, the “EC50 of in vitro killing, NCI-H929 cells” value [1] was 0.311 nM and the “EC50 of in vitro killing, OPM-2 cells” value [1] was 0.033 nM. The “EC50 of in vitro killing, RPMI cells” value [1] was 0.011 nM.

B5: 5E11 IgG (antibody, V domains shown)
VH: ELQLEQSGGGLVQPGGSLTLSCAASGFTFSKYAMAWVRQAPTKGLEWVASISTGGVNTYYRDSVKARFTISRDNAKNTQYLQMDSLRSEDTATYYCATHTGDYFDYWGQGVMVTVSS
VL: DIVLTQSPALAVSPGQRATISCRASQSVSISGINLMNWYQQKPGQQPKLLIYHASILASGIPTRFSGSGSGTDFTLTIDPVQADDIATYYCQQTRESPLTFGSGTNLEIK
B5: no binding (tested: 30 µg/ml top concentration) (human GPRC5A).

Source: US20210054094A1 (Hoffmann-La Roche, published 2021)
